Assay results as given in patent US20040018971A1 (published 2004).
Where two headings read alike, the source gives them in different places.

Legend:
HLA-A*0201 [1] = target: T1, HLA-A*0201 (human); assay: inhibition of 125I-labeled probe peptide binding to purified HLA, gel filtration; relative to standard peptide
T1 construct: the construct is not described; also called HLA-A2.1

HLA-A*0206 = target: T2, HLA-A*0206 (human); assay: competition for purified HLA vs 125I-labelled probe peptide, gel filtration
T2 construct: purified HLA class I molecule

HLA-A*0201 [2] = target: T3, HLA-A*0201 (human); assay: as above
T3 construct: also called HLA-A2.1

HLA-A*0202 = target: T4, HLA-A*0202 (human); assay: as above
T4 construct: purified HLA class I molecule

HLA-A*0203 = target: T5, HLA-A*0203 (human); assay: as above
T5 construct: purified HLA class I molecule

HLA-DRB1*0701 [3] = target: T6, HLA-DRB1*0701 (human); assay: competition with 125I probe peptide, purified HLA
T6 construct: also called DR7

HLA-DRB1*0101 [4] = target: T7, HLA-DRB1*0101 (human); assay: competition with 125I probe peptide, purified HLA
T7 construct: also called DR1

HLA-DRB1*0301 [5] = target: T8, HLA-DRB1*0301 (human); assay: competition with 125I-labelled standard peptide, purified HLA-DR, gel filtration
T8 construct: purified MHC class II molecule; also called DR3

HLA-DRB1*0701 [6] = target: T9, HLA-DRB1*0701 (human); assay: inhibition of 125I probe peptide binding to purified HLA-DR, gel filtration
T9 construct: Purified HLA molecule; also called DR7

HLA-A*0301 [7] = target: HLA-A*0301 (human); assay: competition with 125I-labelled standard peptide for purified HLA; gel filtration
HLA-A*6801 = HLA-A*6801 (human); assay: as above
HLA-A*3101 = HLA-A*3101 (human); assay: as above
HLA-A*1101 = HLA-A*1101 (human); assay: as above
HLA-A*3301 = HLA-A*3301 (human); assay: as above
HLA-A*6802 = target: T10, HLA-A*6802 (human); assay: competition for purified HLA vs 125I-labelled probe peptide, gel filtration
T10 construct: purified HLA class I molecule

HLA-DRB1*0401 [8] = target: T11, HLA-DRB1*0401 (human); assay: competition with 125I probe peptide, purified HLA
T11 construct: also called DR4w4

HLA-DRB5*0101 [9] = target: T12, HLA-DRB5*0101 (human); assay: competition with 125I-labelled standard peptide, purified HLA-DR, gel filtration
T12 construct: purified MHC class II molecule; also called DR2w2β2

HLA-DRB1*0101 [10] = target: T13, HLA-DRB1*0101 (human); assay: as above
T13 construct: purified MHC class II molecule; also called DR1

HLA-DRB1*0401 [11] = target: T14, HLA-DRB1*0401 (human); assay: as above
T14 construct: purified MHC class II molecule; also called DR4w4

HLA-DRB1*1501 [12] = target: T15, HLA-DRB1*1501 (human); assay: as above
T15 construct: purified MHC class II molecule; also called DR2w2β1

HLA-DRB1*0802 [13] = target: T16, HLA-DRB1*0802 (human); assay: as above
T16 construct: purified MHC class II molecule; also called DR8w2

HLA-DRB1*1302 [14] = target: T17, HLA-DRB1*1302 (human); assay: as above
T17 construct: purified MHC class II molecule; also called DR6w19

HLA-A*0301 [15] = target: T18, HLA-A*0301 (human); assay: inhibition of 125I-labelled probe peptide binding to purified HLA-A*0301, gel filtration; ratio to standard peptide 941.12 [..] (11 nM); the negative sign is not explained
T18 construct: also called HLA-A3

HLA-DRB1*0301 [16] = target: T19, HLA-DRB1*0301 (human); assay: competition with 125I-labeled standard peptide, purified HLA-DR, gel filtration
T19 construct: also called DR3

HLA-DRB1*0101 [17] = target: T20, HLA-DRB1*0101 (human); assay: inhibition of 125I probe peptide binding to purified HLA-DR, gel filtration
T20 construct: Purified HLA molecule; also called DR1

HLA-DRB1*1501 [18] = target: T21, HLA-DRB1*1501 (human); assay: as above
T21 construct: Purified HLA molecule; also called DR2w2β1

[19] = target: HLA-A*0203 (purified HLA class I molecule) (human); assay: competition with 125I-labelled standard peptide for purified HLA, gel filtration
[20] = target: T22, HLA-A*0201 (purified HLA class I molecule) (human); assay: as above
T22 construct: also called HLA-A2.1

[21] = target: HLA-A*0202 (purified HLA class I molecule) (human); assay: as above
[22] = target: HLA-A*0206 (purified HLA class I molecule) (human); assay: as above
[23] = target: HLA-A*6802 (purified HLA class I molecule) (human); assay: as above
HLA-DRB1*0802 [24] = target: T23, HLA-DRB1*0802 (human); assay: inhibition of 125I probe peptide binding to purified HLA-DR, gel filtration
T23 construct: Purified HLA molecule; also called DR8w2

HLA-DRB1*0401 [25] = target: T24, HLA-DRB1*0401 (human); assay: as above
T24 construct: Purified HLA molecule; also called DR4w4

HLA-DRB5*0101 [26] = target: T25, HLA-DRB5*0101 (human); assay: as above
T25 construct: Purified HLA molecule; also called DR2w2β2

HLA-DRB1*1302 [27] = target: T26, HLA-DRB1*1302 (human); assay: as above
T26 construct: Purified HLA molecule; also called DR6w19

HLA-DRB1*0301 [28] = target: T8, HLA-DRB1*0301; assay: competition with 125I-labelled standard peptide, purified HLA-DR, gel filtration; remark: listed apart in the source
HLA-DRB1*0101 [29] = target: T20, HLA-DRB1*0101; assay: inhibition of 125I probe peptide binding to purified HLA-DR, gel filtration; remark: listed apart in the source
HLA-DR1 (DRB1*0101) = target: T27, HLA-DR1 (DRB1*0101) (human); assay: competition binding assay, purified HLA, 125I-labelled probe peptide, gel filtration
T27 construct: purified HLA class II molecule

HLA-DR4w4 (DRB1*0401) = target: T28, HLA-DR4w4 (DRB1*0401) (human); assay: as above
T28 construct: purified HLA class II molecule

HLA-DR7 (DRB1*0701) = target: T29, HLA-DR7 (DRB1*0701) (human); assay: as above
T29 construct: purified HLA class II molecule

## YVSRLLGICL (Synthetic peptide) [HER2/neu peptide, position 781, 10 amino acids]
HLA-A*0201 [1]
  relative binding ratio: 0.0004 ratio (IC50 of standard peptide / IC50 of test peptide)

## VLIQRNPQV (analog of Her2/neu.153) [Her2/neu.153.V9]
HLA-A*0206
  IC50: 385 nM
HLA-A*0201 [2]
  IC50: 55 nM
HLA-A*0202
  IC50: 768 nM
HLA-A*0203
  IC50: 135 nM

## TQLFEDNYALAVLDN [Her2/neu.105]
HLA-DRB1*0701 [3]
  IC50: 1560 nM
HLA-DRB1*0101 [4]
  IC50: 94 nM

## SLSFLQDIQEVQGYV [Her2/neu.70]
HLA-DRB1*0301 [5]
  IC50: 5770 nM

## QPPICTIDVYMIMVK (Synthetic peptide)
HLA-DRB1*0701 [6]
  IC50: 250 nM

## AVPLDSTFYR [Her2/neu.997.V2]
HLA-A*0301 [7]
  IC50: > 110000 nM
HLA-A*6801
  IC50: 73 nM
HLA-A*3101
  IC50: 30000 nM
HLA-A*1101
  IC50: 88 nM

## AVPLDSTFYK [Her2/neU.997.V2K10]
HLA-A*0301 [7]
  IC50: 550 nM
HLA-A*6801
  IC50: 229 nM
HLA-A*3101
  IC50: 1500 nM
HLA-A*1101
  IC50: 33 nM
HLA-A*3301
  IC50: 22300 nM

## YLIMVKCWMV (analog of Her2/neu.952 (10-mer)) [Her2/neu.952.L2V10]
HLA-A*0206
  IC50: 18 nM
HLA-A*0201 [2]
  IC50: 13 nM
HLA-A*0202
  IC50: 56 nM
HLA-A*6802
  IC50: 84 nM

## QGFFCPDPAPGAGGM [Her2/neu.1028]
HLA-DRB1*0401 [8]
  IC50: 1960 nM

## YVLIAHNQV (Synthetic peptide) [HER2/neu peptide, position 83, 9 amino acids]
HLA-A*0201 [1]
  relative binding ratio: 0.0005 ratio (IC50 of standard peptide / IC50 of test peptide)

## QMRILKETELRKVKV [Her2/neu.711]
HLA-DRB5*0101 [9]
  IC50: 34 nM

## QPPICTIDVYMIMVK
HLA-DRB1*0701 [3]
  IC50: 250 nM

## DEAYVMAGVGSPYVS [Her2/neu.769, listing 1 of 2 here]
HLA-DRB5*0101 [9]
  IC50: 833 nM
HLA-DRB1*0101 [10]
  IC50: 100 nM
HLA-DRB1*0401 [11]
  IC50: 196 nM
HLA-DRB1*1501 [12]
  IC50: 3140 nM
HLA-DRB1*0802 [13]
  IC50: 860 nM
HLA-DRB1*1302 [14]
  IC50: 1750 nM

B1: HER2/neu peptide, position 1173, 10 amino acids (peptide)
peptide: LSPGKNGVVK
notes: Synthetic peptide; also called Her2/neu.1173 (10-mer)
HLA-A*0301 [15]
  relative binding ratio (IC50 of standard peptide / IC50 of test peptide): -0.0002

B2: HER2/neu DR supermotif exemplary peptide KGPLPTDCCHEQCAA (position 228) (peptide)
peptide: KGPLPTDCCHEQCAA
notes: synthetic 15-mer; also called Her2/neu.228
HLA-DRB1*0301 [16]
  relative binding ratio: -0.0027 ratio (standard IC50 / test IC50)

## KVPIKWMALESILRR (Synthetic peptide) [Her2/neu.883]
HLA-DRB1*0101 [17]
  IC50: 2.3 nM
HLA-DRB1*1501 [18]
  IC50: 3.4 nM

B3: HER2/neu peptide, position 799, 9 amino acids (peptide)
peptide: QLMPYGCLL
notes: Synthetic peptide; also called Her2/neu.799
[19]
  relative binding ratio (IC50 of standard peptide / IC50 of test peptide): 0.088 ratio
[20]
  relative binding ratio (IC50 of standard peptide / IC50 of test peptide): 0.023 ratio
[21]
  relative binding ratio (IC50 of standard peptide / IC50 of test peptide): 0.0044 ratio
[22]
  relative binding ratio (IC50 of standard peptide / IC50 of test peptide): 0.0052 ratio
[23]
  relative binding ratio (IC50 of standard peptide / IC50 of test peptide): 0.0031 ratio

## DEAYVMAGVGSPYVS (Synthetic peptide)
HLA-DRB1*0802 [24]
  IC50: 860 nM
HLA-DRB1*0101 [17]
  IC50: 100 nM
HLA-DRB1*0401 [25]
  IC50: 196 nM
HLA-DRB5*0101 [26]
  IC50: 833 nM
HLA-DRB1*1501 [18]
  IC50: 3140 nM
HLA-DRB1*1302 [27]
  IC50: 1750 nM

B4: HER2/neu peptide, position 1162, 10 amino acids (peptide)
peptide: PAGATLERPK
notes: Synthetic peptide; also called Her2/neu.1162 (10-mer)
HLA-A*0301 [15]
  relative binding ratio (IC50 of standard peptide / IC50 of test peptide): -0.0002

## DEAYVMAGVGSPYVS [Her2/neu.769, listing 2 of 2 here]
HLA-DRB1*0401 [8]
  IC50: 196 nM
HLA-DRB1*0101 [4]
  IC50: 100 nM

## KEILDEAYVMAGVGS [Her2/neu.765]
HLA-DRB1*0401 [8]
  IC50: 6160 nM

## ARLLDIDETEYHADG [Her2/neu.867]
HLA-DRB1*0301 [28]
  IC50: 968 nM
HLA-DRB1*0301 [5]
  IC50: 968 nM

B5: HER2/neu DR supermotif exemplary peptide PSGVKPDLSYMPIWK (position 601) (peptide)
peptide: PSGVKPDLSYMPIWK
notes: synthetic 15-mer; also called Her2/neu.601
HLA-DRB1*0301 [16]
  relative binding ratio: -0.0027 ratio (standard IC50 / test IC50)

## QPDVRPQPPSPREGP (Synthetic peptide) [Her2/neu.1142]
HLA-DRB1*0101 [29]
  IC50: 7140 nM

## KTFGSLAFV (analog of Her2/neu.369) [Her2/neu.369.T2V9]
HLA-A*0201 [2]
  IC50: 35 nM
HLA-A*0202
  IC50: 13 nM
HLA-A*0203
  IC50: 1010 nM
HLA-A*6802
  IC50: 17 nM

## SLISAVVGV (analog of Her2/neu.653) [Her2/neu.653.L2V9]
HLA-A*0206
  IC50: 20 nM
HLA-A*0201 [2]
  IC50: 7.1 nM
HLA-A*0202
  IC50: 10 nM
HLA-A*0203
  IC50: 16 nM
HLA-A*6802
  IC50: 110 nM

## LVKSPNHVR [Her2/neu.852.R9]
HLA-A*0301 [7]
  IC50: 7860 nM
HLA-A*6801
  IC50: 50 nM
HLA-A*3101
  IC50: 198 nM
HLA-A*3301
  IC50: 107 nM

## YRSLLEDDDMGDLVD [Her2/neu.1005]
HLA-DRB1*0301 [5]
  IC50: 4760 nM

## QGFFCPDPAPGAGGM (also called Her2/neu.1028) [HER2/neu peptide QGFFCPDPAPGAGGM (position 1028)]
HLA-DR1 (DRB1*0101)
  relative binding ratio: -0.0005 ratio to standard peptide
HLA-DR4w4 (DRB1*0401)
  relative binding ratio: 0.023 ratio to standard peptide
HLA-DR7 (DRB1*0701)
  relative binding ratio: -0.0011 ratio to standard peptide
